From patent US11702475B2, “Cysteine engineered fibronectin type III domain binding molecules” (Janssen Biotech, Inc., priority 2013, dated 2023)
Substitutions are numbered along the chain they refer to. In names and notes the source's numbering stands.

B1: S38C: cysteine variant of P54AR4-83v2 (SEQ ID NOS: 198 and 236); NEM and VC-MMAF conjugates (conjugate)
chain: MLPAPKNLVVSEVTEDSARLSWDDPWAFYESFLIQYQECEKVGEAIVLTVPGSERSYDLTGLKPGTEYTVSIYGVHNVYKDTNMRGLPLSAIFTT
modifications: NEM or vcMMAF conjugate; EGFR binding FN3 domain
notes: NEM and VC-MMAF conjugates
B2: L88C: cysteine variant of P54AR4-83v2 (SEQ ID NOS: 212 and 250); NEM and VC-MMAF conjugates (conjugate)
chain: B1 chain with C39S, L89C
modifications: NEM or vcMMAF conjugate; EGFR binding FN3 domain
notes: NEM and VC-MMAF conjugates
B3: K62C: cysteine variant of P54AR4-83v2 (SEQ ID 208 and 246); NEM and VC-MMAF conjugates (conjugate)
chain: B1 chain with C39S, K63C
modifications: NEM or vcMMAF conjugate; EGFR binding FN3 domain
notes: NEM and VC-MMAF conjugates
B4: T59C: cysteine variant of P54AR4-83v2 (SEQ ID NOS: 206 and 244); NEM and VC-MMAF conjugates (conjugate)
chain: B1 chain with C39S, T60C
modifications: NEM or vcMMAF conjugate; EGFR binding FN3 domain
notes: NEM and VC-MMAF conjugates
B5: T48C: cysteine variant of P54AR4-83v2 (SEQ ID NOS: 203 and 241); NEM and VC-MMAF conjugates (conjugate)
chain: B1 chain with C39S, T49C
modifications: NEM or vcMMAF conjugate; EGFR binding FN3 domain
notes: NEM and VC-MMAF conjugates
B6: I45C: cysteine variant of P54AR4-83v2 (SEQ ID NOS: 201 and 239); NEM and VC-MMAF conjugates (conjugate)
chain: B1 chain with C39S, I46C
modifications: NEM or vcMMAF conjugate; EGFR binding FN3 domain
notes: NEM and VC-MMAF conjugates
B7: G64C: cysteine variant of P54AR4-83v2 (SEQ ID NOS: 209 and 247); NEM and VC-MMAF conjugates (conjugate)
chain: B1 chain with C39S, G65C
modifications: NEM or vcMMAF conjugate; EGFR binding FN3 domain
notes: NEM and VC-MMAF conjugates
B8: G60C: cysteine variant of P54AR4-83v2 (SEQ ID NOS: 207 and 245); NEM and VC-MMAF conjugates (conjugate)
chain: B1 chain with C39S, G61C
modifications: NEM or vcMMAF conjugate; EGFR binding FN3 domain
notes: NEM and VC-MMAF conjugates
B9: S89C: cysteine variant of P54AR4-83v2 (SEQ ID NOS: 213 and 251); NEM and VC-MMAF conjugates (conjugate)
chain: B1 chain with C39S, S90C
modifications: NEM or vcMMAF conjugate; EGFR binding FN3 domain
notes: NEM and VC-MMAF conjugates
B10: S70C: cysteine variant of P54AR4-83v2 (SEQ ID NOS: 211 and 249); NEM and VC-MMAF conjugates (conjugate)
chain: B1 chain with C39S, S71C
modifications: NEM or vcMMAF conjugate; EGFR binding FN3 domain
notes: NEM and VC-MMAF conjugates
B11: R54C: cysteine variant of P54AR4-83v2 (SEQ ID NOS: 205 and 243); NEM and VC-MMAF conjugates (conjugate)
chain: B1 chain with C39S, R55C
modifications: NEM or vcMMAF conjugate; EGFR binding FN3 domain
notes: NEM and VC-MMAF conjugates
B12: A90C: cysteine variant of P54AR4-83v2 (SEQ ID NOS: 214 and 252); NEM and VC-MMAF conjugates (conjugate)
chain: B1 chain with C39S, A91C
modifications: NEM or vcMMAF conjugate; EGFR binding FN3 domain
notes: NEM and VC-MMAF conjugates
B13: V41C: cysteine variant of P54AR4-83v2 (SEQ ID NOS: 200 and 238); NEM and VC-MMAF conjugates (conjugate)
chain: B1 chain with C39S, V42C
modifications: NEM or vcMMAF conjugate; EGFR binding FN3 domain
notes: NEM and VC-MMAF conjugates
B14: K40C: cysteine variant of P54AR4-83v2 (SEQ ID NOS: 199 and 237); NEM and VC-MMAF conjugates (conjugate)
chain: B1 chain with C39S, K41C
modifications: NEM or vcMMAF conjugate; EGFR binding FN3 domain
notes: NEM and VC-MMAF conjugates
B15: L47C: cysteine variant of P54AR4-83v2 (SEQ ID NOS: 202 and 240); NEM and VC-MMAF conjugates (conjugate)
chain: B1 chain with C39S, L48C
modifications: NEM or vcMMAF conjugate; EGFR binding FN3 domain
notes: NEM and VC-MMAF conjugates
B16: Y72C: cysteine variant of P54AR4-83v2; NEM and VC-MMAF conjugates (conjugate)
chain: LPAPKNLVVSEVTEDSARLSWDDPWAFYESFLIQYQESEKVGEAIVLTVPGSERSYDLTGLKPGTEYTVSICGVHNVYKDTNMRGLPLSAIFTT
modifications: left off: small tags and cut ends
notes: cysteine variant of P54AR4-83v2; NEM and VC-MMAF conjugates
B17: V74C: cysteine variant of P54AR4-83v2; NEM and VC-MMAF conjugates (conjugate)
chain: B16 chain with C72Y, V74C
modifications: left off: small tags and cut ends
notes: as for B16

tested on: not listed separately; assay: Thermal stability of cysteine-NEM conjugates by DSC; type: physicochemical; conditions: DSC 25-100 °C, 1 °C per minute
Procedure: The thermal stability of cysteine-NEM conjugates was assessed by differential scanning calorimetry (DSC). The only the conjugates tested were those determined to express at high levels, conjugate efficiently, and retain EGFR binding. Additionally, cysteine variants within the BC and FG loops were excluded. Stability data was generated by heating a 400 μL aliquot of the variant from 25° C. to 100° C. at a scan rate of 1° C. per minute in a VP-DSC instrument (MicroCal). A second identical scan was completed on the sample in order to assess the reversibility of thermal folding/unfolding. Data was fitted to a 2-state unfolding model in order to calculate the melting temperature (Table 10).

Row | Molecule | First Scan Tm [°C]
1 | B1 | 65
2 | B2 | 70
3 | B3 | 65
4 | B4 | 67
5 | B5 | 72
6 | B6 | 69
7 | B7 | 70
8 | B8 | 66
9 | B9 | 72
10 | B10 | 73
11 | B11 | 65
12 | B12 | 67
13 | B13 | 71
14 | B14 | 70
15 | B15 | 67
16 | B16 | 70
17 | B17 | 68

same assay, conditions: second identical scan

Row | Molecule | Second Scan Tm [°C]
18 | B1 | 65
19 | B2 | 70
20 | B3 | 65
21 | B4 | 67
22 | B5 | 72
23 | B6 | 68
24 | B7 | 70
25 | B8 | 66
26 | B9 | 71
27 | B10 | 72
28 | B11 | 65
29 | B12 | 67
30 | B13 | 71
31 | B14 | 70
32 | B15 | 67
33 | B16 | 69
34 | B17 | 67

tested on: not listed separately; assay: Analytical size exclusion chromatography (percent monomer); type: physicochemical; conditions: NEM-conjugated cysteine variants; SEC, Abs280 monomer region 5.5-6 minutes vs oligomer region 4-5.3 minutes
Procedure, shortened: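 Purified FN3 domains were run on a Superdex 75 5/150 column in PBS pH 7.4 at 0.3 mL/min with A280 detection. Percent monomer came from integrating the monomer peak (5.5–6 min) against oligomer peaks (4–5.3 min).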

Row | Molecule | Percent monomer [%]
35 | B1 | 93
36 | B2 | 98
37 | B3 | 95
38 | B4 | 100
39 | B5 | 90
40 | B6 | 97
41 | B7 | 100
42 | B8 | 100
43 | B9 | 96
44 | B10 | 100
45 | B11 | 96
46 | B12 | 100
47 | B13 | 98
48 | B14 | 97
49 | B15 | 100
50 | B16 | 100
51 | B17 | 100

tested on: EGFR-overexpressing human tumor cell line H1573; assay: Cytotoxicity assay in H1573 cells; type: cell-based; conditions: cysteine variants conjugated to VC-MMAF, Cell TiterGlo at 70 hours, read-out: IC50
Procedure: Cell killing was assessed by measuring viability of the EGFR-overexpressing human tumor cell line H1573 following exposure to the cysteine variant-cytotoxin conjugates. Cells were plated in black-well, clear bottomed, tissue culture-treated plates (Falcon 353219) at 7000/well in 100 μL/well of phenol red free RPMI media (Gibco 11835-030) with 5% fetal bovine serum (Gibco). Cells were allowed to attach overnight at 37° C. in a humidified 5% CO2 atmosphere. Medium was aspirated from 96-well plate and cells were treated with 50 uL of fresh media and 50 uL of 2× inhibitor made up in fresh media. Cell viability was determined by an endpoint assay with Cell TiterGlo (Promega) at 70 hours. IC50 values were determined by fitting data to the equation for a sigmoidal dose response with variable slope using GraphPad Prism 5 (GraphPad Software). Table 11 reports IC50 values obtained from analysis of the CellTiter Glo data.
Conjugates consisting of ECB147 cysteine variants, 83v2-cys, or Tencon-cys linked to a cytotoxic tubulin inhibitor from the auristatin family (FIG. 2) were tested for target-dependent cytotoxicity in cancer cells. The inhibitor was linked to the cysteine-containing protein via a non-cleavable PEG4 linker or an enzyme-cleavable valine-citrulline or valine-lysine linker. Cell killing was assessed by measuring viability of the EGFR-overexpressing human tumor cell lines H1573 and A431 as well as the EGFR-negative tumor cell line MDA-MB-435 following exposure to the protein-cytotoxin conjugates using the procedure described in Example 4.

Row | Molecule | IC50 [nM]
52 | B1 | 0.76
53 | B2 | 0.81
54 | B3 | 1.25
55 | B4 | 0.44
56 | B5 | 0.59
57 | B6 | 0.63
58 | B7 | 0.36
59 | B8 | 1
60 | B9 | 0.94
61 | B10 | 1.14
62 | B11 | 0.37
63 | B12 | 1
64 | B13 | 1.13
65 | B14 | 0.73
66 | B15 | 1.03
67 | B16 | 1.85
68 | B17 | 3.13
